Test: soluble on expression in E. coli; label from the status in PepcDB or PDB records
In the case of “MAHHHHHHMIKCLKNNINIWKRVRRNVSYGYYNININEKIHKYFDNIDKKRNIKYISDCKSCKECVDEIKNGNYNLLKDFNMKMIGLDIEGYKIGKYGIVSIIQICYEDIYIFDIYKCDNVYLFINYIKDILECDDIIKVTHDCREDCSILYNQYNIHLKNILDTQVAYNLLLKNNNNYTNTYQISYDDLLKKYLFINNNHKIYFHKMITLDNYIYLKRPIMKELISYAIQDVIYLKPLILCILDKFIIKQKKKEEQEKNKYVNDKQNNKIKQEKFDKTSNTLQSKGNISSFNNQDLYHTKEIIQDIILHSKKYVNYQFLNSHIKDEKELQKGMILEGMVVSCNNTKMYLKLNMRKRGVILNYVQNKYEIGDIVKAVIVNFTRNDYINLGLYDEKILTLDAQKYIPREEVLQNIQKFLLNEEKI”, the “soluble on expression in E. coli” value is reported as “not soluble”.
In the case of “MAHHHHHHMIVELNPANFHKVVKDPSKNVFVMFYAPWCGHCNNMKPMWLELADKYPTAEDVIIARIDASEYRGIAKEFDIRGFPTLKFFSKRDKSGEIEYDGPRELSAFVAYVATNKQ”, the “soluble on expression in E. coli” value is reported as “not soluble”.
With “MAHHHHHHMKCQKIRRDIFIYMLYNFSFCAGKKEDKDKGKDKDKEKKKLESVPISHMGKKKKKNKGTSGHSKLPNVTPNTKCRLKLLKLERIKDYLLLEEEYITNQEQIKSSDDKNYVKLKIDDLRGSPVSVGTLEELIDENHGIIATSVGPEYYVNILSFVDKDLLEPGCSVLLNNKTNSVVGILLDEVDPLVSVMKVEKAPLESYADIGGLESQIQEIKEAVELPLTHPELYEDIGIKPPKGVILYGPPGTGKTLLAKAVANETSATFLRVVGSELIQKYLGDGPKLVREMFKVAEEHAPSIVFIDEIDAVGTKRYEATSGGEREIQRTMLELLNQLDGFDSRGDVKVIMATNRIDSLDPALIRPGRIDRKIQLPNPDTKTKRRIFQIHTSKMTMSPDVDLEEFVMSKDELSGADIKAICTEAGLLALRERRMKITQADLRKARDKALFQKKGNIPEGLYL” the “soluble on expression in E. coli” value was “not soluble”.
For “MAHHHHHHMKDYNVTMEVFVQEPDDYVQDQRLLEEILNLTAHQALEAINKPLHEGVLSLSGNVGTMKEKDTITPLARGKPNGVLTQVPTEARREAEERLRREEEERLGGTQEMKFTFSGTIEDVLFRGEFRYKEMKLNDFLLLRFGGRGVVATNRSVLLEEFFKEPARYVPGARVLNEIKITVRYLRIEGTVREEMDLEEVVRMLHHESVFPLSNGRNMKEMTQPLPLQGEN”, the “soluble on expression in E. coli” value was “not soluble”.
In the case of “MAHHHHHHMKFAFVFPGQGSQSVGMLNAFADVAVVRETLDEASDALGQDIGKLIADGPADELNLTTNTQPVMLTAAYACYRAWQQAGGAQPSIVAGHSLGEYTALVAAGAIAFRDALPLVRFRAQAMQTAVPVGVGGMAAILGLDDDTVRAVCAEASATGVVEAVNFNAPAQVVIAGTKAGIEKACEIAKEKGAKRALPLPVSAPFHSSLLKPASDKLREYLAGVDVKAPKISVVNNIDVAVVSDPAAIKDALVRQAAGPVRWVECVQHIAREGVTHVIECGPGKVLAGLTKRIDGNLVGASVFDPASLDEALKLAAA”, the “soluble on expression in E. coli” value is reported as “soluble”.
For “MAHHHHHHMKKSGKGRIKLKIQINTEEEENKENIIYENKNKKRKGSDISDDNDESIEKFKDLDNSYASDRKQKEDNDLEKKIISIISQLTKITCICEDKKNNINNLENEKICKKLIKQMYKYEKYLLQFSNYINENNNHNLDDITFPNGLIKAVDNYINPNVWIYQYLLLETKKQNDSYRNLIQNISTFDSTLKHKILNNDSNHLVNPVYPPLDENLLNSLNNTQQNYYKNVHIPKELSHYYLKSRNKTKED”, the “soluble on expression in E. coli” value was “not soluble”.
With “MAHHHHHHMKNCMMADQRGRSILQYQPIVGDEALEFSRGLAPSTFGFRYAAYMDRNHFLPSGRTAVKHIADPTLAYVMTRYRQCHDFVHIITGCGRSIEEELAVKIFEWKHTGLPLGLLSLLGGAPRLSAAQWAHIRLYWEWASRNAPSSRHGEPAVPMYLNVPWEDMLAKEYDEVVAYTGITPLPDFLEKRQKH” the “soluble on expression in E. coli” value was “not soluble”.
With “MAHHHHHHMKRGREEDKEAEVGGSRVGPSDRRSAATSTEHKPRRLLKGADVGLPLHESVIEETCEVEETHAVLVRFPCFDFFRHVRVCERTRDLQPATSDDAAKASASLASALSDTTFRSGAPPVTSTHDTADVAFAPEAAVFIPGTLETDAPRLLLNGGTPHEMLFEGQWTEVTGEGVSVTNRAVVHLSAKTAGIAVSPAALPLNTSPIMSDAAKSPELARAAAESFPASASQATATPALPIASLLTHTLAGVTADEERRQRAEQQKGWTYDRIDVPSAVLVMHRVR” the “soluble on expression in E. coli” value was “not soluble”.
With “MAHHHHHHMKSSSKDLCKYFCRKCNNFIYYNEACELIYKKIYPDYYKIYYNKYEFDKKTKGKKEVNPKQYDNLYRQLYNNGLCGVNKQRNDFLNKDNINNILLFLNKGSIQCNKCNHIHMWYMK” the “soluble on expression in E. coli” value was “soluble”.
For “MAHHHHHHMKYLTFNRSNKDAIDLCERLEATKIDLANPLLLQYSWVIWEQVSDNKIKQSNNYKDYTRPLAKFNSVQKFWQLWNRLPQPSDLLAQKSMTRLSEDGTLRIIDALMIFRDNIQPMWEDPANAEGGHFEYKFVPRDFPYSQIDEFWNNLVLAIIGCTLKHYNLITGIRLVDKLSTTRHGYVRIEIWYTTVPDESVRNHLRKDLEEHMCNRIDGSHVYPPRGKNFSHSHK”, the “soluble on expression in E. coli” value was “soluble”.
With “MAHHHHHHMLANEGRNASANNTTQPSFLILSSKNRHCITHNLTQIQTRCRPHFTEKRLKRGSWLKREEVWIEVQLCYRLGRRFTPTLFSQCAYRPSIRLGPTGTTGLAVPLLKIIYRQNSTIQKHKKEDDEKRCIKKKTIYGT” the “soluble on expression in E. coli” value was “not soluble”.
For “MAHHHHHHMLCTFTTLHERIRILTDAHQLILPEELEAEFPDEAQLIKSMLAANPLQRPQIRKFLRQINKLIVALEAQESDEEAEKPPPPSPLDGTEHSESRNGNDEAATAALVDDSASALATATATSKLGNTPLSTSVAAASSSRGRPVAADLASGGHADSFSDVQDSFSSPLGEQKSRVALLPVFHSEAATGTSVAATSPMAATTSVHDTNAASAGKHVTRRGDSLASLHASTMVKRGNTYHHRRRGSASPNMEAEIGRLHICEMVATGSASRQGFFANDPYGLPTTPVMYTEDADLSTILKRDLQDRTVSAPD”, the “soluble on expression in E. coli” value was “not soluble”.
For “MAHHHHHHMLFYITPFPHSEVMRVEEQHQLFLAAKEAQLVRNEATQIILSDASHHSALHGAFVRVLVELPDQSDSYIIARVGAVTTGEPYDGFSHNTSTRTDKYLVLVLPHSLASINGTQYQLNSISNSPMTEDEFNLWLSTMQEPGSVPACAYRGVVEDTDAHLYLESSKIPSRQELLAIGGRIHALGSAASQNSRNPNSRRRRSNNGSSEQSLQQPEWMPKEQQMAIPRISSGNGATLGSIAGMQDYSAFMANPTGGAGPQNGANFNHTNSDPLPSTAGVTEGTNEPSLFVEPTTPRPASATEQELDLPSRHQIRQDILNKLNHRSVVFPQNIDELKLSQLRLVERDMIEYLEHVRDVLSSKQENCVVCLDHVPTVISLPCRHKVLCRLCASAVSTCPVCRSHLFELFEPKEI”, the “soluble on expression in E. coli” value was “not soluble”.
In the case of “MAHHHHHHMLGSGKSSGVVNEASNLKANQNLTSAIEEMNTKEYIRNRDLNDVVPTHRRQVEAMMNKGNNNNGKVGLPAYDPAAEKEKERKERGQTHIEDRNDSDDDGELEELRKRRMAQMQQHHAKVAEWRQKQHGQYREISQDEFFSIVVREKGGSDDVCVHFYHKDFETCRVMDSRLLELSRMMLSVKFVKIDAEKSPFLVERLHIKTLPCCVLFHNDVAVDRIYGFEGCIGEDGLLDKELLGERILRAVNCKQEECE”, the “soluble on expression in E. coli” value is reported as “soluble”.
For “MAHHHHHHMLLRASASSTLRTRGASCCSGACTGLYGSGSLTVQQRFIEYWGSGVTGRTQPYAQGDMIPRVDNMRYPVNKATSAAASLTGNQSSIAYDTSSIFQVEGFSPLEKEHYQSLRGSTRHKVESLPPHIGKDVMVLLKNMSEEGLLEEHWWARVVKDFPSMKTPCTAEFKSAWEKFYTEASGVADDNEAVKAISRPFLQTQMQKNYIAYAMVWRVAERLCEAFDAVPHVTVYERRGGRLVVERVTKLMLDTIADEPWAHQETTSPLHVDISNFRAWHEAGYW”, the “soluble on expression in E. coli” value was “not soluble”.
In the case of “MAHHHHHHMLNCFFGAELKPDGVPISFTIPKGTTLVITQCAVTSVVPPQQSTDAGASSSPAVVAKAYNPVTLCVQGHGLPTRFAVCSLSPAQHITYCPLQLLFSKPVSFVLVPQTGSTAAAAAASSSPSPAPHAGKKTGRNQKHSKTTAGAHGAGAEATAVYPTVHLTGYYERAADEDEEDGSMAMDVMESSDDGENDDLSDDE”, the “soluble on expression in E. coli” value is reported as “soluble”.

Source: the DeepSol protein solubility set
